± gives the uncertainty stated by the source.
Experiment: protein stability index of a GFP-peptide fusion (yeast GPS) (PSI 1-4); higher = more stable; sorted into four equal gates, so the index is relative within each strain
Method in brief: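 Peptides tiling yeast proteins in 17-residue segments were fused downstream of GFP, with Cherry expressed from the same plasmid. As a pooled library in yeast, mid-log cultures grown in leucine-free medium were sorted into four equal gates by GFP/Cherry fluorescence ratio. Gate plasmids were PCR-amplified and Illumina-sequenced, and barcodes linked reads to strains. Each peptide received a protein stability index equal to the sum of each gate's read frequency times its gate number.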

Row | Sequence | protein stability index (doa10∆) | protein stability index (pdr5∆) | protein stability index (san1∆) | protein stability index (ubr1∆)
1 | CIQVNCLNCEKSKLFEW [SNM1] | 3.11 ± 0.065 | 3.29 ± 0.058 | 3.13 ± 0.05 | 3.16 ± 0.052
2 | ENGQRDLDRIAAQTLEE [RPS19A] | 3.2 ± 0.084 | 3.16 ± 0.086 | 3.28 ± 0.097 | 3.19 ± 0.093
3 | TFTIQLLKLTKVFIRES [YML103C/NUP188] | 2.17 ± 0.063 | 3.12 ± 0.08 | 2.46 ± 0.086 | 2.69 ± 0.12
4 | AQKNTQSYGGRPYGVGL [PRE5] | 3.38 ± 0.084 | 3.43 ± 0.075 | 3.23 ± 0.076 | 3.26 ± 0.058
5 | TQKRLAASVVGVGKRKV [RPL19A] | 1.33 ± 0.1 | 1.32 ± 0.16 | 1.13 ± 0.11 | 1.79 ± 0.11
6 | LRRVEERFTKSKTLSLI [FAS1] | 2.31 ± 0.076 | 2.09 ± 0.059 | 2.17 ± 0.087 | 1.79 ± 0.037
7 | ITLLPSSLKESSPDTMK [SNF12] | 2.96 ± 0.19 | – | – | 2.27 ± 0.25
8 | SPPCYIIDHIPGHSLLL [SNF5] | 2.14 ± 0.063 | 2.54 ± 0.057 | 2.3 ± 0.079 | 2.49 ± 0.047
9 | GTGLQSYLEERERQVNE [RPC53] | 3.17 ± 0.16 | 3.24 ± 0.12 | 3.14 ± 0.11 | 3.25 ± 0.13
10 | RKDTVSREVLRYEEFAD [RPC40] | 3.38 ± 0.11 | 3.59 ± 0.15 | 3.32 ± 0.082 | 3.3 ± 0.11
11 | SKVIIKFLQVMQKHGYI [RPS22A] | 1.95 ± 0.038 | 1.84 ± 0.038 | 1.76 ± 0.066 | 2 ± 0.039
12 | KVRLNASEREELALIEE [PRP8] | 3.14 ± 0.17 | 2.89 ± 0.14 | 2.98 ± 0.12 | –
13 | QTYINQELGFCELLKLT [SSN2] | 2.81 ± 0.24 | 2.45 ± 0.12 | 2.39 ± 0.17 | 2.67 ± 0.093
14 | GAHLLEFQPSGNVTELY [PRE5] | 2.54 ± 0.12 | 2.99 ± 0.076 | 2.92 ± 0.12 | 3.02 ± 0.11
15 | DPQHKAIRRDARYNWIC [RPL15A] | 2.86 ± 0.088 | 3.31 ± 0.12 | 2.92 ± 0.16 | 3.11 ± 0.16
16 | HSSSVFKGTDFVHSVKK [SRB4] | 2.75 ± 0.073 | 2.93 ± 0.074 | 3.15 ± 0.048 | 2.99 ± 0.056
17 | CSNESFASIPVSNSISR [SNU114] | 2.55 ± 0.069 | 2.67 ± 0.057 | 2.46 ± 0.078 | 2.7 ± 0.062
18 | RDVYVFDKVEVQVRSVM [DIS3] | 2.92 ± 0.067 | 3 ± 0.068 | 3.33 ± 0.052 | 3.24 ± 0.071
19 | KSGKFCSHCGCVYVPNF [SNM1] | 2.48 ± 0.068 | 1.79 ± 0.055 | 1.7 ± 0.11 | 1.42 ± 0.062
20 | MAVKTGIAIGLNKGKKV [RPL36B] | – | 1.49 ± 0.2 | – | –
21 | SGEKIDFLLSDWNKRFS [BRR2] | 2.37 ± 0.061 | 2.72 ± 0.055 | 2.88 ± 0.067 | 2.79 ± 0.056
22 | NIVNDFTPEEEAAIRRE [SKP1] | 2.28 ± 0.14 | 2.73 ± 0.079 | 3.08 ± 0.13 | 3.02 ± 0.086
23 | ELISLRKILESSNIVNE [YIL149C/MLP2] | 2.17 ± 0.089 | 2.53 ± 0.068 | 2.33 ± 0.064 | 2.12 ± 0.1
24 | AIACYSGYNQEDSMIMN [RPB2] | 2.65 ± 0.084 | 1.75 ± 0.072 | 2.67 ± 0.098 | 2.39 ± 0.12
25 | TGKVSEFISIYSNSHQM [RET1] | 2.83 ± 0.092 | 2.44 ± 0.12 | 3.03 ± 0.11 | 2.72 ± 0.073
26 | NFKGLAKEKERMLEEAI [YIL149C/MLP2] | 3.4 ± 0.095 | 3.56 ± 0.09 | 3.48 ± 0.071 | 3.38 ± 0.083
27 | DGIHYILNHIGQLTGIY [PRP8] | 1.67 ± 0.065 | 1.55 ± 0.073 | 1.14 ± 0.12 | 1.67 ± 0.078

From the supplement of paper PMC9732359
